Values of other authors as cited in publication PMC10301793 (Marine Drugs, 2023).
Where no end group is shown, it is not given here.

Molecular target: α6/α3β4 nAChR (Rattus norvegicus, UniProt P04757+P12392+P43143)
Settings: cited from earlier work

## [D1G,∆Q14]LvIC: LvIC analogue (GCCANPVCNGKHC-NH2; ends and bridges not checked)
  IC50: 0.019 µM
